Measurements from publication PMC9375587 (2022).

Molecular target: Thrombin (Homo sapiens, UniProt P00734)
Assay: solid-phase binding assay

B1: Myeloperoxidase (protein)
chain: not shown
  Kd: 101 nM
